The labels stand for the following.
B1: Ras-associated and pleckstrin homology domains-containing protein 1 (Homo sapiens), Q70E73 (parent)
chain: MEQLSDEEIDHGAEEDSDKEDQDLDKMFGAWLGELDKLTQSLDSDKPMEPVKRSPLRQETNMANFSYRFSIYNLNEALNQGETVDLDALMADLCSIEQELSSIGSGNSKRQITETKATQKLPVSRHTLKHGTLKGLSSSSNRIAKPSHASYSLDDVTAQLEQASLSMDEAAQQSVLEDTKPLVTNQHRRTASAGTVSDAEVHSISNSSHSSITSAASSMDSLDIDKVTRPQELDLTHQGQPITEEEQAAKLKAEKIRVALEKIKEAQVKKLVIRVHMSDDSSKTMMVDERQTVRQVLDNLMDKSHCGYSLDWSLVETVSELQMERIFEDHENLVENLLNWTRDSQNKLIFMERIEKYALFKNPQNYLLGKKETAEMADRNKEVLLEECFCGSSVTVPEIEGVLWLKDDGKKSWKKRYFLLRASGIYYVPKGKAKVSRDLVCFLQLDHVNVYYGQDYRNKYKAPTDYCLVLKHPQIQKKSQYIKYLCCDDVRTLHQWVNGIRIAKYGKQLYMNYQEALKRTESAYDWTSLSSSSIKSGSSSSSIPESQSNHSNQSDSGVSDTQPAGHVRSQSIVSSVFSEAWKRGTQLEESSKARMESMNRPYTSLVPPLSPQPKIVTPYTASQPSPPLPPPPPPPPPPPPPPPPPPPPLPSQSAPSAGSAAPMFVKYSTITRLQNASQHSGALFKPPTPPVMQSQSVKPQILVPPNGVVPPPPPPPPPPTPGSAMAQLKPAPCAPSLPQFSAPPPPLKIHQVQHITQVAPPTPPPPPPIPAPLPPQAPPKPLVTIPAPTSTKTVAPVVTQAAPPTPTPPVPPAKKQPAFPASYIPPSPPTPPVPVPPPTLPKQQSFCAKPPPSPLSPVPSVVKQIASQFPPPPTPPAMESQPLKPVPANVAPQSPPAVKAKPKWQPSSIPVPSPDFPPPPPESSLVFPPPPPSPVPAPPPPPPPTASPTPDKSGSPGKKTSKTSSPGGKKPPPTPQRNSSIKSSSGAEHPEPKRPSVDSLVSKFTPPAESGSPSKETLPPPAAPPKPGKLNLSGVNLPGVLQQGCVSAKAPVLSGRGKDSVVEFPSPPSDSDFPPPPPETELPLPPIEIPAVFSGNTSPKVAVVNPQPQQWSKMSVKKAPPPTRPKRNDSTRLTQAEISEQPTMATVVPQVPTSPKSSLSVQPGFLADLNRTLQRKSITRHGSLSSRMSRAEPTATMDDMALPPPPPELLSDQQKAGYGGSHISGYATLRRGPPPAPPKRDQNTKLSRDW
B2: Amyloid beta A4 precursor protein-binding family B member 1-interacting protein (Mus musculus), Q8R5A3 (parent)
chain: MGESNEDIDQMFSTLLGEMDLLTQSLGVDTLPPPDPNPPREEFNYTVGFKDLNESLNALEDQDLDALMADLVADISEAEQRTIQAQKESSQNQDRFALLRASDGQGTASGGYGASAAAIDVSHHEEALPPPPVEPMLDLLPPPPPPPPPELLSKEEEEAKAKADKIKLALEKLKEAKVKKLVVKVHMDDSSTKSLMVDERQLARDVLDNLFEKTHCDCNVDWCLYEIYPELQIERVFEDHENVVEVLSDWTRDTENKVLFLEKEERYAVFKNPQNFYLDNKGKKENKETNEKMNAKNKEYLLEESFCGTSIIVPELEGALYLKEDGKKSWKRRYFLLRASGIYYVPKGKTKTSRDLACFIQFENVNIYYGIQCKMKYKAPTDHCFVLKHPQIQKESQYIKYLCCDDARTLSQWVMGIRIAKYGKTLYDNYQRAVARAGLASRWTNLGTVGTPMPAQPSTVSSGLKTGTSQPNGQMPQAIPSAGPPLQEAQTQIETTKDEKQGLGNHSPGATRENHRPKSSLPPPPPPVRRSSDTCGSPALPSKVKGPGTCTFPHPPENFLPPPPPPPPEEDNSGLLPPPPPPPYLEEPPDFVPPPPPPAAVEDSALPPPPPPPPCLSQEITKSSPLPPKKPLVPPKRQENQGLPGAPGNSEQDFMSDLMKALQKKRGNIP

The variants in the first assay derive from B1. The conditions noted are these: with tln1_mouse Tln1, P26039.
Sequence of tln1_mouse Tln1, P26039 (P26039 whole entry): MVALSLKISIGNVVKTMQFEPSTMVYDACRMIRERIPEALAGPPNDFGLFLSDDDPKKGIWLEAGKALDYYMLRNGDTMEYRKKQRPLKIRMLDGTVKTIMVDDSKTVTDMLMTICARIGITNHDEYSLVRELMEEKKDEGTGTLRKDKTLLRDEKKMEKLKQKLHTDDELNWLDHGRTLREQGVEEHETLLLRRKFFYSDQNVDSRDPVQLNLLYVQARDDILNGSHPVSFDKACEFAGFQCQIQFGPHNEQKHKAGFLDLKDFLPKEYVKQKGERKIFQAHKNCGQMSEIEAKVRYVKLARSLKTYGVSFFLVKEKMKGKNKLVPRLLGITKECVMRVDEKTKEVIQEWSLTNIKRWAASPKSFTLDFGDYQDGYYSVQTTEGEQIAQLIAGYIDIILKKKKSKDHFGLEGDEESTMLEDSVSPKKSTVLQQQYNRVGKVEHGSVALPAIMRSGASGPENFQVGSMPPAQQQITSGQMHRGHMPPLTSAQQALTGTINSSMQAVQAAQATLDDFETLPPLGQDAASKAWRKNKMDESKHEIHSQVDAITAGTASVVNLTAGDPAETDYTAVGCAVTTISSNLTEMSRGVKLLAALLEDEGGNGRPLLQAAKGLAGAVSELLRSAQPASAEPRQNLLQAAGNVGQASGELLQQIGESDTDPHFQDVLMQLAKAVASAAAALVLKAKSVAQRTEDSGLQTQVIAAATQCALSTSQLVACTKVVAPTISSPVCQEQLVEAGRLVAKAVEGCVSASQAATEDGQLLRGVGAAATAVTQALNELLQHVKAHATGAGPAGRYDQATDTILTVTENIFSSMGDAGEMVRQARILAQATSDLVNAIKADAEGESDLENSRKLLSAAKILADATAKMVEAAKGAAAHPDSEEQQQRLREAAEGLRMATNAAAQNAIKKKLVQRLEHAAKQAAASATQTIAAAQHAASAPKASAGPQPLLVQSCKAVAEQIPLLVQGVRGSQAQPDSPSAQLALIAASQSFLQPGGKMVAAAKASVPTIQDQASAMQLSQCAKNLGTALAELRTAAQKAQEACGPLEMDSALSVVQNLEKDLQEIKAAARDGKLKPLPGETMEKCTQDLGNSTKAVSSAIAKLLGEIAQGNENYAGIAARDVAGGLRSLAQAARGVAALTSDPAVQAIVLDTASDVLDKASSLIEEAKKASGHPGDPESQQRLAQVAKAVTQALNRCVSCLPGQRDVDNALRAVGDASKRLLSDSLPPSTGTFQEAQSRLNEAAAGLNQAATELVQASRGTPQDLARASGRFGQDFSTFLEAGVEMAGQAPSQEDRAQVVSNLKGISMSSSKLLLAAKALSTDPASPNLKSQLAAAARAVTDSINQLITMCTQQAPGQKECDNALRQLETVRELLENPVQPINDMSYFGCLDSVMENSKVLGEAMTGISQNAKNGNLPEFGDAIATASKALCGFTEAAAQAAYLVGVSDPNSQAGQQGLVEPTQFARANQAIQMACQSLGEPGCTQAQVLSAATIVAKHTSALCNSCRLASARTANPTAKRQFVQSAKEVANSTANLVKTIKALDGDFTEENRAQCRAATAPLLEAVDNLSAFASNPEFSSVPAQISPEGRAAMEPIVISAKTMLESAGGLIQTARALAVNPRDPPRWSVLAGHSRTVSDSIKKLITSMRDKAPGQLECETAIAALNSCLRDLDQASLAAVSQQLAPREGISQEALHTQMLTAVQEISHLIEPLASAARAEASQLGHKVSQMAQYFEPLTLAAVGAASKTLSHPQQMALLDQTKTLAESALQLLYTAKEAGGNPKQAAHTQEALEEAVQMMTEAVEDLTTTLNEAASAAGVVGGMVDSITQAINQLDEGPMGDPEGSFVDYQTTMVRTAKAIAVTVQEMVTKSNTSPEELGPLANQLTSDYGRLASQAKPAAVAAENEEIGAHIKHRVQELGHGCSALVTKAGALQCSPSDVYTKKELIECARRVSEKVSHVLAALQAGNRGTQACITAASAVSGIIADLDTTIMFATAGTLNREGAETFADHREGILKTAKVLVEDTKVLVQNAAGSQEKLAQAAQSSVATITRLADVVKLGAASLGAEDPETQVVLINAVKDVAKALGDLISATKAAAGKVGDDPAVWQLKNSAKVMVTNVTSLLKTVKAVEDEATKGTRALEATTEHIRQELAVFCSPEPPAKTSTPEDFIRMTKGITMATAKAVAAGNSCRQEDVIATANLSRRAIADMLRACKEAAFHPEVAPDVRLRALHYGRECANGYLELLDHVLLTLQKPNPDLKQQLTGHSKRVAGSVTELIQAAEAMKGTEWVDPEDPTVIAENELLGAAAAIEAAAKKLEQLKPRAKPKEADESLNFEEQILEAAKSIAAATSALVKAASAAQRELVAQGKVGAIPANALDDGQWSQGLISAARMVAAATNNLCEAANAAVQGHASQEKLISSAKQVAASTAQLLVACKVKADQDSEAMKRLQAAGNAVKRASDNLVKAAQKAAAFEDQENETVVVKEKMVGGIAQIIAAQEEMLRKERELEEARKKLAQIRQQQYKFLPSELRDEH
For the variant G29S, the “effect of a mutation on the interaction” value is recorded as “increasing interaction strength”.

Another assay covers variants of B2. The following applies: with tln1_mouse Tln1, P26039.
As for D9A, the “effect of a mutation on the interaction” value is listed as “decreasing interaction strength”.
Take E18A: the “effect of a mutation on the interaction” value is recorded as “disrupting interaction strength”.
The same measure, in the same setting: to S13G belongs “disrupting interaction strength”; to L15Y, “disrupting interaction strength”.

The variants in a further assay derive from B2. The following applies: with tln1_mouse Tln1, P26039. The source holds these as a separate data set.
Regarding S13G, the “effect of a mutation on the interaction” value was “decreasing interaction strength”.
